Reference: a protein production outcome set (Wang et al. 2014)

Test: label from the status in PepcDB records

Sequence	protein production
MPFSWLKPIDYARIFVGWASIFIIPLITLPSIIELALIVAVILFCAFGVVKMAERLAHILGDPFGSLILTLSIVIIEVILICAVMLGPADSTTAGRDSVMAVSMIIMGLVVGLCLLIGGLRHGSMPHNGVGTPTYLVLIATFSVIAFAVPAFRGEYSTGQALVISTLTAVVYGFFLFRQMGAQAGEFQEVEVAEKADDAAKWEVPFRGLILIITVLPIVLLSHDMATVMDEVLASLGAPVAMAGLIIATIVFLPETITSLKAAWTGEIQRVSNLAHGAQVSTVGLTIPAVLVIGVITGQDVVLGETPINLLLLGTTIAVTAIAFSSKKVSAVHGSVLLMLFGVYMMSMFA	failed
MDGSIRVSAKTVDDAITEALIQLGVTSDRLEYEVIEKGSSGFLGIGMKQAVIEARRKPEPVAEVKEETIPVEEVKPSVVKEQVSEPVQEKQEEKAEEEPARKKATELAEVSDEAIKAVEAFLNDTLKAMDMDVEIVSEVDSEGALSVEMKGSNMGILIGKRGQTLDALQYLANRVANKHQDGYVRVKLDTENYRARREETLRHLAKNIAFKVKRTRRAVSLEPMNPYERRIIHAALQSDPHVTTHSEGEEPYRKVVVTLKR	failed
HIDLFDLDVEEPNDRIFIKGEAEEWPAYRKVPEVRENCNACGVCKDVCQYSAIYVIDKAYPLPELCHSCGACIYLCPEKAMEEVDYQTGKIVRVKSDITLTYGEMRIGEASAVFLIKQVKELMGKNAIIDSPPGASCPMVESVSDADYVILVAEPTPFGLHDLKIAAEVVSDLGLKFGVVVNKHGLPFDGIERYCKEGGVEILGKIPFSKEIAEKYSRGELLHDMKDFFVQLYEG	failed
MLFKRPDTETLYFALVNKDPAYEGVAYVCVTSTKIFCRFTCTARKPKIENCRFRETITECLEAGFRPCKRCKPMLSYGTPDGTVTALLTALENEPARRWREEDVVALGHDPSTVRRSFKRRFGMSFLEIARLRRVGDAAESLASGEAVIGAQIDAGYESGSGFRSAINQLFGTSPAAMKGRGFLKGDWIDTPIGPMLAVADDHALHLLEFADRPALPAELKRLKARTGADMVLGRTAVTGQIAAELAAYFAGRSGSFETRLAGHGTPFERDVWRNLREIPAGEIVSYSSLATAMERPTAVRAVARANGANQLAIVVPCHRVLGADGSLTGYGGGLWRKKWLIEHERRMARGLEHHHHHH	not failed
MDQQSIVSILMILATFGLYIGISIYNRARATSDFYVASRGVPPFWNGMAIGGDWMSAASFIGMAGTIMILGYDGLAYIMGWTGGYLFLTFLFAPQLRKYGRYTVPEFIGDRYGSNTARLIAAIATIIISFTYIIGQLSGSGVVIGRILNIPAMYGTMIGVVVIAIYATLGGMKGITWTQVAQYIILIVAYIIPIVFMSLQLSGNPFPWLTYGNFISQLDGLDQELGLSQILQPFMESDKSQFIALMFTLMVGTAALPHVIVRFYTVTTMKAARWSGAWALIFIALLYLSAPAYAAFSRFILMTQVANQPIDQLPAWTEAWINTGLLEMADANGDGILQWEELRISNDIVVMATPEIANLGMFVIGLVAAGAMAAALSTAGGLLITISSSFAHDIYYRLMNPKASDQKRLLAGRIAIVLATIVAGVVALDPPGVITQIVAWAFGLAGGAFFPVLLLGVWWKRANAKGAIAGMLSGLAVTLVYIFLARTGTFTLFGIQDTGAGLIGVPVNLFVTIVVSLMTAAPSQKLQDEVVDLRYPEQMTYKDGEVWMDESSGK	failed
MSGTSAALKPPADATTPVRHPDAPAPGELLGAHYGHCFGCGEEQSHGLHLAARAGQGVSITAEFTVQPAHQGAPGLAHGGVLATALDETLGSLNWLLRTIAVTGRLETDFVRPVPVGTVLYLEAEVTAVAGRKIYSTATGRIGGPEGPVAVRADALFVEVKVDHFTDNGRQEEIRAAMNDPDQLRRARAFEVNP	failed
MVNVFYEEAGALKVGSILTDNTTSLQIESAHGKRSKIKAALVLLRFENPPMHGFMQQAQEKAADIDVNFLWECCEENREFTGQELAGDYFGHTPDPLETAAILILLSQNPIYFHKKGVGRFKAAPPEILQAALASREKKRLAEEKQAGYVQQLMAFELPDTFRPLLDDLLYKPDKNTIEWKALETACDATRLSVPRLLERCGAIPSTHDYHYNQFLYEHFPEGIDTDAYPADFHLLDPEDLPVAGVKAFSIDDATTTEIDDAFSVTPLNFGSFRIGIHIATPALGVAPHSLLDKFAAKRLSTVYLPGRKITMLPESVIQHFTLGEAHHRPVLSLYLEVADDFTVTRTFSRIETIEVSTNLRLDSLERQFNEITLRENQTDYPFAHELRLLWNFSCKMEKLRGKDQDINSEKIDYSFIIDQDRVSVYERRRGAPIDKVVSELMIFANAEWGKQLADAGYAGIYRSQGNGKVKMSLSPAPHQGLGVSQYAWSSSPMRRYVDLINQRQLIALVSGNPPPYTREDDTLLIAMRDFEMAYATYAEFQRGMERYWCLRWLLQENISTSGAIVIKENMIKLDRLPLIVRIPSLPELAPGTLVAVGVSQIDLIDRSLNASFLGKSEG	failed
MAYVSMGEAHRRITEYLNRFCDAVSYQDSSTLCRLLSFSSNSPPLLSLADALNVFQDSSSLIRQSDRFSEYGEILAHVFRSLQSYRVGNLVEAYLAFDKFANAFVQEFRNWESAWALEALYVVCYEIRVLAEKADKDLTSNGKSPEKLKAAGSLLMKVFGVLAGKGPKRVGALYVTCQLFKTYFKLGTVNLCRSVIRSIETARIFDFEEFPRRDKVTYMYYTGRLEVFNENFPAADTKLSYALQNCNPKRERNIRMILKYLVPVKLSLGIIPKDELLRNYNLHEYTKIVQALRKGDLRLLRHALQEHEDRFLRSGVYLVLEKLELQVYQRLMKKIYINQKLSDPARAHQLKLEGIAKALRWLDMDMDLDEVECIMTILIYKNLVKGYLAHKSKVVVLSKQDPFPKLNGKPVSS	failed
MKEFLNSLSYGISSHEVNNEFKQIFRELLTNHIIKEHKNKYYLNNGFAFGVLDISSKGTGFLQCFDESFKKDLLIENKNLKGANYKDIVAVKLLPLKKKRPSAKVILVLKRANETSLMITKRYGEAVLGMNIKTGLSTALKASQKSLKALPLGTILKIENENNNIIEVLGHIDDESVDEKISLALFNKNNEFSDACIKEALANGDSVDASMYENRMDLRALPFCTIDPIHAKDFDDAIYFDTQKREIYVAIADVSEYVYAYSAIDKEARNRGFSIYFPHIAIPMLPRPLSENICSLKPHLDRLAYCFKITLNHENKVIKEELFEGIINSKRRFNYDEVDEILIQKPDLKELSWLYELFEITKNLRKMRLKNAFEFRTEELRMNLDENLSLKSTVFEKDTPSHNLIEDCMLLANKAAAKLIDIGVFRNHLSADVRKIDKLLNELRELGIDVNFKPNLPELIRDIQALADELNLRAEVDKLIIKAQKKAEYSSVNAGHFGLGFDKYSHFTSPIRRYSDLILHRLLKAKQKNDEKLFNYLLLNIESTCENLSTLEREADKVAFDFMDRKFARWAAKNIGKKFKALVVQNDGVCIAKLDDEIKGADIILYDTRVNLLENVEVQIMEADIVMAKIYAKITQRLIKEENV	failed
MSDSLPQRNGGQILVEALRRNAVDTVYCIPGESYLPVLDALYDTDGIRTVVTRHEGAASNMADAYGKLTGRPGICFVTRGPGATHAANGVHTAQQDSTPMILFVGQVESAFKGREAFQEVDYVQMFSGLAKWAVEIDRIERIPEIVGRAFSVATSGRPGPVVVALPEEILFGSAQVADAPEPRVLPGRPGATAMAELRELLANARRPLLVLGGSGWDSAARKRLGAFVEANGLPVATSFRRQDLFDNRDPHYAGQLGFGAAPALLERLRQADLLLVVGARLGETPSAGYSLVRSPAPAQTLIHVHPDSAELNRVYLARLPIQATPCAFAEALADLAPLPSSTWQDWREAAHADYLAYSTPAASDPAVQGVDLASVVAYLSENLPDDAVIANGAGNYAVWVHRFYRYRQARTQLAPTNGAMGYGLPAAIAASLRDPQRSVVCFAGDGCFMMYPQELATAAQFGATPVVIVVNNGMLGTIRMHQEREYPGRVSATRLDNPDFVALARAFGAHAERVECSADFPAAFRRARESGRPALLELLTDPRQITPQA	failed
MNFFTSPFSGIPLDQQVTNPNIIVGKHSYYSGYYHGHSFDDCVRYLHPERDDVDKLVIGSFCSIGSGAVFMMAGNQGHRSDWISTFPFFYQDNDNFADARDGFTRSGDTIIGHDVWIGTEAMIMPGVKIGHGAIIASRSVVTKDVAPYEVVGSNPAKHIKFRFSDVEIAMLLEMAWWNWPESWLKESMQSLCSSDIEGLYLNWQSKART	not failed
MRAKKRKFLQKEELSKLLQSLDMSQIGFGWFVMLAAKTGMRYAEALAITPADFDWTAQTISINKTWDYKYNKGFAKTKTLSSVRTIKIDWQIVGQFKPLIKDFPEDEPIFVEKFGDGTYKRQFNSTINNFLAVKCNETGITQISFHALRHTHASVLLAEGVSIHTISARLGHADVGVTQETYAHVLDELQKKDDQKMLSVLMQIALEHHHHHH	not failed
QLREIVEKVSRVDDVHLALDILVKETCAALRTECCTIYLANEEMQRLELMATQGLIFEGDSIHINFNEGLVGLVKRSAEPLNLAEASKHPEFKFFPQLGEQVYHSFLATPIIHRKQVLGVLVIQQKTPRLFSEMEESFLVTLSAQLAVIIAHAQSLGHWQ	failed
MPSPSGSSTLSKPAPRFASIGSPYFGIMLAIMAVVLILSNIGASKGVVLGPIITDGGFFLFPLAYILGDVMSEVYGFKVARKAIITSFALSVFASLCYWIIIVLPGFNDEYGTAKQAAIEGALGPVPLIVLGSLLAFLAGQTINSWILVKMKARTGEKSLWARLMGSSVVGEFVDTLIFCSIAASVIGITDFGSFLNYVLVGFVYKTAVEFLFVPVTVLVVGWIKKREPSYGVVAA	failed
GSSGSSGDKKAYFYHSSFQILNVEYTEALNSPATHEYRTLSERIEAMITDEFRGSSLKSEFIRTHVVKLRKEGTGVVADVVMKFRSSKRNNRKVMKTRIQSVLRRLSSSGNLEIAPSNEITSLTDQDT	not failed
DEVENLYTQVADNEYLVQGRMLIDEFNEVFETDLHMSDVDTMAGYLITALGTIPDEGEKPSFEVGNIKLTAEEMEGTRLLVLRVHFYDEE	not failed
MKYTVYLFDFDYTLADSSRGIVTCFRSVLERHGYTGITDDMIKRTIGKTLEESFSILTGITDADQLESFRQEYSKEADIYMNANTILFPDTLPTLTHLKKQGIRIGIISTKYRFRILSFLRNHMPDDWFDIIIGGEDVTHHKPDPEGLLLAIDRLKACPEEVLYIGDSTVDAGTAAAAGVSFTGVTSGMTTAQEFQAYPYDRIISTLGQLISVPEDKS	not failed
EHIVPSNQQQIVRVLRTPGNNLHEVETAQGQRFLVSMPSKYRKNIWIKRGDFLIVDPIEEGEKVKAEISFVLCKDHVRSLQKEGFWPEAFSEVAEKHN	not failed
